Test results reported in publication PMC12592476.

Assays:
[1] = biological target: bovine brain Arp2/3 complex (bovine) (UniProt P61157); assay: ITC; Coro7 CA in the syringe, ATP-bound Arp2/3 complex in the 1.44 mL cell; 25 °C; 20 mM HEPES pH 7.5, 100 mM KCl, 1 mM MgCl2, 1 mM EGTA, 1 mM DTT, 0.2 mM ATP
[2] = biological target: bovine brain Arp2/3 complex (bovine) (UniProt P61157); assay: ITC; Coro7 CA in the syringe, ADP-bound Arp2/3 complex in the 1.44 mL cell; 25 °C; 20 mM HEPES pH 7.5, 100 mM KCl, 1 mM MgCl2, 1 mM EGTA, 1 mM DTT, 0.2 mM ADP

human Coro7 CA (C-terminal Central-Acidic region of coronin 7), sequence (P57737 888-925): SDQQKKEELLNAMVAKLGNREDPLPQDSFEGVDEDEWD

human Coro7 CA (C-terminal Central-Acidic region of coronin 7) (from UniProt P57737-1 888-925) (domain or fragment)
Kd [1]: 1000 nM
stoichiometry N [1]: 1
Kd [2]: 1000 nM
stoichiometry N [2]: 1
